The source of these data is patent US20230048553A1 (AbbVie / Abbott, published 2023).

For orientation: EC50 means the concentration giving half of the maximal effect. Read a low EC50 as greater potency.

In assay [1] the target is T1, human CCR8 (chemokine receptor 8) (human, UniProt P51685 1-355). The assay is described as follows: cell-based or functional assay.
Assay [2] concerns the target T2, cynomolgus CCR8 (cynomolgus monkey, UniProt G7NYJ2 1-355). Nature of the assay: cell-based or functional assay.
Assay [3] concerns the target T2, cynomolgus CCR8. Nature of the assay: flow cytometry on cyCCR8 Jurkat cells. As for the experimental part:
(§1) The candidate molecules were assessed for binding capacity using flow cytometry through known methods against overexpressed huCCR8 or cyCCR8 on the surface of Jurkat cells. The exemplary antibodies were tested for their ability to self-interact, bind to huCCR8 and cyCCR8, capacity for ADCC using the reporter bioassay, and non-specific binding to HEK293 cells. […] The AC-SINS self-interaction scores for each candidate was <1. At 100 μg/mL, non-specific binding maximums ranged from 97 to 144 GMFI. At 10 μg/mL, non-specific binding maximums ranged from 94-111 GFMI. At 1 μg/mL, non-specific binding maximums ranged from 87-102 GMFI.

For assay [4], the target named is T1, human CCR8 (chemokine receptor 8). Nature of the assay: flow cytometry on huCCR8 Jurkat cells. As for the experimental part: as §1
The target in the next assay is T3, mouse CCR8 (mouse, UniProt P56484 1-353, limits assumed).
T3 sequence (looked up): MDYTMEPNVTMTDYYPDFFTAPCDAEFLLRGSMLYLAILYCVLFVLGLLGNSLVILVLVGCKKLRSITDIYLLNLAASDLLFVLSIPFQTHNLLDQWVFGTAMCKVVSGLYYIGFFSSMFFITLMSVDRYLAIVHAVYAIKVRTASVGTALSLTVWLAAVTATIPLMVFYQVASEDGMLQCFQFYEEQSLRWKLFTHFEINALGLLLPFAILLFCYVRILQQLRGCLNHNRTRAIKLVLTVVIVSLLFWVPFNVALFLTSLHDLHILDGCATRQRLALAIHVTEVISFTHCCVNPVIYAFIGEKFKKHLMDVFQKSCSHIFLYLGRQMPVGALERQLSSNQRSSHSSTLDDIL
The assay is described as follows: not told.

A further assay concerns the target T4, rat CCR8 (rat, UniProt D4ADE0 1-353).
T4 sequence: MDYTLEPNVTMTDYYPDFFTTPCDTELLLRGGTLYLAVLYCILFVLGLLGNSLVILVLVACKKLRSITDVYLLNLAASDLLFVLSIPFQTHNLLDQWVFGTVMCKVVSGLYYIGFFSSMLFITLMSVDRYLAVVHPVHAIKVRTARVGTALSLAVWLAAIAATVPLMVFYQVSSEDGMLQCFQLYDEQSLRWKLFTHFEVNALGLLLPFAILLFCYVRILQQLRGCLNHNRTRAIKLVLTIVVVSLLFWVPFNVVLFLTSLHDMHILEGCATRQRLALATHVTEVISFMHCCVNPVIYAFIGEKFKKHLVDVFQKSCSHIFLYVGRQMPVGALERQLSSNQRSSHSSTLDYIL
The assay is described as follows: not told.

In another assay the target is T5, rabbit CCR8 (rabbit, UniProt G1T2B2 1-355).
T5 sequence: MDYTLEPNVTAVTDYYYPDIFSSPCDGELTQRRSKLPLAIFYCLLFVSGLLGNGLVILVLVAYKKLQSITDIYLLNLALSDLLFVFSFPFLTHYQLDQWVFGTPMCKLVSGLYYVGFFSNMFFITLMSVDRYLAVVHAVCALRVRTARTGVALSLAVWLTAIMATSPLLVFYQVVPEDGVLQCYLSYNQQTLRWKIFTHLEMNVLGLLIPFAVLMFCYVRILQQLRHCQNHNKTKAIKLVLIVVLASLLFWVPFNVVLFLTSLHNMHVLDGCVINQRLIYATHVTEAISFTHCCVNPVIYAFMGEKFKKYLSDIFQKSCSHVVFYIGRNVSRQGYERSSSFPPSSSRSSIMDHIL
Nature of the assay: not told.

The target in assay [5] is T1, human CCR8 (chemokine receptor 8). Nature of the assay: cell-based or functional assay. This is another data set of the same source.

T1 sequence (P51685 whole entry): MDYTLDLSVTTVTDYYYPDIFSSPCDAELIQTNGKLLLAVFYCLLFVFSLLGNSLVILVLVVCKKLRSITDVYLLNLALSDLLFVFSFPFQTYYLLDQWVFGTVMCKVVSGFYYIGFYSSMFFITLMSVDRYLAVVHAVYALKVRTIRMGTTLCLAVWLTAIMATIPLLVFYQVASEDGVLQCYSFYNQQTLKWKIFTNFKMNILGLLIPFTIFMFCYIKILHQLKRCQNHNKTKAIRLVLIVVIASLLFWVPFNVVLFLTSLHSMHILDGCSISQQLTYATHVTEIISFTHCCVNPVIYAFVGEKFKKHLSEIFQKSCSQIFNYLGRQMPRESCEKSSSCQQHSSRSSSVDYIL
T2 sequence (G7NYJ2 entry or part of it): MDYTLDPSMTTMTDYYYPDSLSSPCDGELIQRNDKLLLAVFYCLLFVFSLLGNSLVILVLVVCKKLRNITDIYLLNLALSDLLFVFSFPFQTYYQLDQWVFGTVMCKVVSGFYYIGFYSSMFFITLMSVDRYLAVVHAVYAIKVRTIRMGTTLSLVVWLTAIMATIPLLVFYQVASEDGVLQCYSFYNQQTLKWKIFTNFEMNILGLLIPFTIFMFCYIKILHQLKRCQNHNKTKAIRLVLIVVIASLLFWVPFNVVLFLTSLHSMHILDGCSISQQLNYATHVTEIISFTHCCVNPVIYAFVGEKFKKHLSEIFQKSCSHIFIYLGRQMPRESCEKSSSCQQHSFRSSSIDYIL

B1: AC-264700 (antibody, V domains shown)
VH: EVQLVESGGGLVQPGGSLKLSCAASGFIFSNAVMYWVRQASGKGLEWVARIKTKFNNYATYYADSVKGRFTISRDDSKNMVYLQMNSLKTEDTAVYYCTAGDRNKPFAYWGQGTLVTVSS
VL: ETVVTQSPATLSLSPGERATLSCRASDSVITLLHWFQQKPGQAPRLLIHGASNLESRVPARFSGSGSGTDFTLTISSLEPEDFATYFCQQSWNDPYTFGQGTKLEIKR
Consider B1, for which, in assay [1], the “ADCC reporter huCCR8 EC50” value was found to be 0.12 nM and the “ADCC reporter huCCR8 Max Fold Induction” value turned out to be 12.8 fold. Besides, in the assay with cynomolgus CCR8 [2], the “ADCC reporter cyCCR8 EC50” value turned out to be 0.79 nM and the “ADCC reporter cyCCR8 Max Fold Induction” value is 12 fold. Also, the EC50 with cynomolgus CCR8 [3] was found to be 5.27 nM. For the same molecule, the EC50 in assay [4] was determined as 2.33 nM.

B2: AC-277357 (fucosylated) (antibody, human IgG1, kappa, V domains shown)
VH: EVQLVESGGGLVQPGGSLKLSCAASGFIFSNAVMYWVRQASGKGLEWVARIKTKFNNYATYYADAVKGRFTISRDDSKNMVYLQMNSLKTEDTAVYYCTAGDRNKPFAYWGQGTLVTVSS
VL: ETVVTQSPATLSLSPGERATLSCRASTSVITLLHWFQQKPGQAPRLLIHGASNLESRVPARFSGSGSGTDFTLTISSLEPEDFATYFCQQSWNDPYTFGQGTKLEIKR
notes: AC-264700 with LCDR1 D27→T. Human IgG1 kappa
In the case of B2, in assay [1], the “ADCC reporter huCCR8 EC50” value amounted to 0.1 nM and the “ADCC reporter huCCR8 Max Fold Induction” value was 15.7 fold. Besides, in the assay with cynomolgus CCR8 [2], the “ADCC reporter cyCCR8 EC50” value came to 0.75 nM and the “ADCC reporter cyCCR8 Max Fold Induction” value was found to be 12.3 fold. For the same molecule, in the assay with cynomolgus CCR8 [3], the EC50 is 2.37 nM. Also, the EC50 in assay [4] turned out to be 1.51 nM.

B3: AC-277371 (antibody, V domains shown)
VH: EVQLVESGGGLVQPGGSLKLSCAASGFIFSNAVMYWVRQASGKGLEWVARIKTKFNNYATYYADAVKGRFTISRDDSKNMVYLQMNSLKTEDTAVYYCTAGDRNKPFAYWGQGTLVTVSS
VL: ETVVTQSPATLSLSPGERATLSCRASGSVITLLHWFQQKPGQAPRLLIHGASNLESRVPARFSGSGSGTDFTLTISSLEPEDFATYFCQQSWNDPYTFGQGTKLEIKR
As for B3, in assay [1], the “ADCC reporter huCCR8 EC50” value was found to be 0.05 nM and the “ADCC reporter huCCR8 Max Fold Induction” value turned out to be 12.7 fold. Moreover, in the assay with cynomolgus CCR8 [2], the “ADCC reporter cyCCR8 EC50” value was 0.57 nM and the “ADCC reporter cyCCR8 Max Fold Induction” value is 11.7 fold. For the same molecule, in the assay with cynomolgus CCR8 [3], the EC50 was found to be 4.83 nM. The molecule also showed an EC50 in assay [4] of 1.87 nM.

B4: ABBV-514 (antibody, human IgG1, kappa, V domains shown)
VH: EVQLVESGGGLVQPGGSLKLSCAASGFIFSNAVMYWVRQASGKGLEWVARIKTKFNNYATYYADAVKGRFTISRDDSKNMVYLQMNSLKTEDTAVYYCTAGDRNKPFAYWGQGTLVTVSS
VL: ETVVTQSPATLSLSPGERATLSCRASTSVITLLHWFQQKPGQAPRLLIHGASNLESRVPARFSGSGSGTDFTLTISSLEPEDFATYFCQQSWNDPYTFGQGTKLEIKR
modifications: afucosylated N-glycan at ASN-300 (EU: ASN-297)
notes: Afucosylated humanized IgG1 kappa made in cells expressing Pseudomonas RMD
B4: the binding result with mouse CCR8, with rat CCR8 and with rabbit CCR8 was “no binding” throughout. Also, in assay [5], the “EC50 of CCL1 blockade (CCR8 beta-arrestin reporter assay)” value amounted to 23.1 µg/mL.

B5: AC-277483 (antibody, V domains shown)
VH: EVQLVESGGGLVQPGGSLKLSCAASGFIFSNAVMYWVRQASGKGLEWVARIKTKFNNYATYYADAVKGRFTISRDDSKNMVYLQMNSLKTEDTAVYYCTAGDRNKPFAYWGQGTLVTVSS
VL: ETVVTQSPATLSLSPGERATLSCRASDAVITLLHWFQQKPGQAPRLLIHGASNLESRVPARFSGSGSGTDFTLTISSLEPEDFATYFCQQSWNDPYTFGQGTKLEIKR
With B5, in assay [1], the “ADCC reporter huCCR8 EC50” value was 0.07 nM and the “ADCC reporter huCCR8 Max Fold Induction” value worked out at 13.6 fold. In addition, in the assay with cynomolgus CCR8 [2], the “ADCC reporter cyCCR8 EC50” value stood at 1.19 nM and the “ADCC reporter cyCCR8 Max Fold Induction” value is 10 fold. This molecule gave an EC50 with cynomolgus CCR8 [3] of 5.93 nM. In addition, in assay [4], a half-maximal response (EC50) required 2.9 nM.
